Laboratory results from publication PMC4737156, “Taking a molecular motor for a spin: helicase mechanism studied by spin labeling and PELDOR”.
Residue numbers refer to the chain shown, from its start.

Assays:
[1] = molecular target: T1, PcrA V344C/Q506C-R1 (2A-2B) (Bacillus stearothermophilus, UniProt P56255 1-724, V344C;Q506C); assay: PELDOR (DEER) EPR; no nucleotide; distances 37.3 and 44.1 A (1:0.7); PELDOR in D2O buffer (composition, pH not given in material): PcrA 70 uM, DNA 150 uM, nucleotide 10-fold excess, 1 mM MgCl2, 5% EG-d6; XPD 40-50 uM, DNA about 2x, nucleotide/MgCl2 1 mM; details: protein: recombinant; tags: none stated; hairpin, 11 bp duplex, 3' overhang 10 nt
T1 sequence: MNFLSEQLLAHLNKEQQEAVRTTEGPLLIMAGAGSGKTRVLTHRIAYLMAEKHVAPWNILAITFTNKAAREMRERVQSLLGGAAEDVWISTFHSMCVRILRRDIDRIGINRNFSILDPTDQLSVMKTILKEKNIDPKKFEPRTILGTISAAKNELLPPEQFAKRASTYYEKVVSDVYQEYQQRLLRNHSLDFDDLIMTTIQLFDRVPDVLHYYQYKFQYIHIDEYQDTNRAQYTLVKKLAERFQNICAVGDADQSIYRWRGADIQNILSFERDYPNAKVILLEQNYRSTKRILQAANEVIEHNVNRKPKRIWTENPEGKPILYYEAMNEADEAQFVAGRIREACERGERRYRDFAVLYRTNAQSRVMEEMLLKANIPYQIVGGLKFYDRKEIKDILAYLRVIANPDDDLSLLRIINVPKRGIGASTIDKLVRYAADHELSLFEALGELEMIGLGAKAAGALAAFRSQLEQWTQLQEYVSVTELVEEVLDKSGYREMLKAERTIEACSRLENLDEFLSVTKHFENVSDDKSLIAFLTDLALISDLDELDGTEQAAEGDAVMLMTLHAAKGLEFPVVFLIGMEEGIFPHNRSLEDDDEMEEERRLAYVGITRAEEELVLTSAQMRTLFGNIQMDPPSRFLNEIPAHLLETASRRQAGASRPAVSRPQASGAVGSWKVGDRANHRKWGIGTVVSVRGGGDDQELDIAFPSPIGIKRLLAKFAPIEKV

[2] = molecular target: T2, PcrA E74C/Q506C-R1 (1A-2B) (Bacillus stearothermophilus, UniProt P56255 1-724, E74C;Q506C); assay: PELDOR (DEER) EPR; no nucleotide; distances 35 and 45 A (0.5:1); PELDOR in D2O buffer (composition, pH not given in material): PcrA 70 uM, DNA 150 uM, nucleotide 10-fold excess, 1 mM MgCl2, 5% EG-d6; XPD 40-50 uM, DNA about 2x, nucleotide/MgCl2 1 mM; details: protein: recombinant; tags: none stated; hairpin, 11 bp duplex, 3' overhang 10 nt
T2 sequence: T1 sequence with E74C, C344V

B1: hairpin with 3'-(dT)10 overhang (structured_DNA)
DNA: CGAGCACTGCTTTAGCAGTGCTCGTTTTTTTTTT
B1: binds [1]; binds [2].
